Measurements published in IntAct's records for PubMed 31515488.

B1: E3 ubiquitin-protein ligase TRIM32 (Homo sapiens), Q13049 (parent)
chain: MAAAAASHLNLDALREVLECPICMESFTEEQLRPKLLHCGHTICRQCLEKLLASSINGVRCPFCSKITRITSLTQLTDNLTVLKIIDTAGLSEAVGLLMCRSCGRRLPRQFCRSCGLVLCEPCREADHQPPGHCTLPVKEAAEERRRDFGEKLTRLRELMGELQRRKAALEGVSKDLQARYKAVLQEYGHEERRVQDELARSRKFFTGSLAEVEKSNSQVVEEQSYLLNIAEVQAVSRCDYFLAKIKQADVALLEETADEEEPELTASLPRELTLQDVELLKVGHVGPLQIGQAVKKPRTVNVEDSWAMEATASAASTSVTFREMDMSPEEVVASPRASPAKQRGPEAASNIQQCLFLKKMGAKGSTPGMFNLPVSLYVTSQGEVLVADRGNYRIQVFTRKGFLKEIRRSPSGIDSFVLSFLGADLPNLTPLSVAMNCQGLIGVTDSYDNSLKVYTLDGHCVACHRSQLSKPWGITALPSGQFVVTDVEGGKLWCFTVDRGSGVVKYSCLCSAVRPKFVTCDAEGTVYFTQGLGLNLENRQNEHHLEGGFSIGSVGPDGQLGRQISHFFSENEDFRCIAGMCVDARGDLIVADSSRKEILHFPKGGGYSVLIREGLTCPVGIALTPKGQLLVLDCWDHCIKIYSYHLRRYSTP
partner: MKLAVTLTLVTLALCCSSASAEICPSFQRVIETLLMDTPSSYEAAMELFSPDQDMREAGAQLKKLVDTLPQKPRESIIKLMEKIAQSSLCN
B2: Tuftelin-interacting protein 11 (Homo sapiens), Q9UBB9 (parent)
chain: MSLSHLYRDGEGRIDDDDDERENFEITDWDLQNEFNPNRQRHWQTKEEATYGVWAERDSDDERPSFGGKRARDYSAPVNFISAGLKKGAAEEAELEDSDDEEKPVKQDDFPKDFGPRKLKTGGNFKPSQKGFAGGTKSFMDFGSWERHTKGIGQKLLQKMGYVPGRGLGKNAQGIINPIEAKQRKGKGAVGAYGSERTTQSMQDFPVVDSEEEAEEEFQKELSQWRKDPSGSKKKPKYSYKTVEELKAKGRISKKLTAPQKELSQVKVIDMTGREQKVYYSYSQISHKHNVPDDGLPLQSQQLPQSGKEAKAPGFALPELEHNLQLLIDLTEQEIIQNDRQLQYERDMVVNLFHELEKMTEVLDHEERVISNLSKVLEMVEECERRMQPDCSNPLTLDECARIFETLQDKYYEEYRMSDRVDLAVAIVYPLMKEYFKEWDPLKDCTYGTEIISKWKSLLENDQLLSHGGQDLSADAFHRLIWEVWMPFVRNIVTQWQPRNCDPMVDFLDSWVHIIPVWILDNILDQLIFPKLQKEVENWNPLTDTVPIHSWIHPWLPLMQARLEPLYSPIRSKLSSALQKWHPSDSSAKLILQPWKDVFTPGSWEAFMVKNIVPKLGMCLGELVINPHQQHMDAFYWVIDWEGMISVSSLVGLLEKHFFPKWLQVLCSWLSNSPNYEEITKWYLGWKSMFSDQVLAHPSVKDKFNEALDIMNRAVSSNVGAYMQPGARENIAYLTHTERRKDFQYEAMQERREAENMAQRGIGVAASSVPMNFKDLIETKAEEHNIVFMPVIGKRHEGKQLYTFGRIVIYIDRGVVFVQGEKTWVPTSLQSLIDMAK
partner: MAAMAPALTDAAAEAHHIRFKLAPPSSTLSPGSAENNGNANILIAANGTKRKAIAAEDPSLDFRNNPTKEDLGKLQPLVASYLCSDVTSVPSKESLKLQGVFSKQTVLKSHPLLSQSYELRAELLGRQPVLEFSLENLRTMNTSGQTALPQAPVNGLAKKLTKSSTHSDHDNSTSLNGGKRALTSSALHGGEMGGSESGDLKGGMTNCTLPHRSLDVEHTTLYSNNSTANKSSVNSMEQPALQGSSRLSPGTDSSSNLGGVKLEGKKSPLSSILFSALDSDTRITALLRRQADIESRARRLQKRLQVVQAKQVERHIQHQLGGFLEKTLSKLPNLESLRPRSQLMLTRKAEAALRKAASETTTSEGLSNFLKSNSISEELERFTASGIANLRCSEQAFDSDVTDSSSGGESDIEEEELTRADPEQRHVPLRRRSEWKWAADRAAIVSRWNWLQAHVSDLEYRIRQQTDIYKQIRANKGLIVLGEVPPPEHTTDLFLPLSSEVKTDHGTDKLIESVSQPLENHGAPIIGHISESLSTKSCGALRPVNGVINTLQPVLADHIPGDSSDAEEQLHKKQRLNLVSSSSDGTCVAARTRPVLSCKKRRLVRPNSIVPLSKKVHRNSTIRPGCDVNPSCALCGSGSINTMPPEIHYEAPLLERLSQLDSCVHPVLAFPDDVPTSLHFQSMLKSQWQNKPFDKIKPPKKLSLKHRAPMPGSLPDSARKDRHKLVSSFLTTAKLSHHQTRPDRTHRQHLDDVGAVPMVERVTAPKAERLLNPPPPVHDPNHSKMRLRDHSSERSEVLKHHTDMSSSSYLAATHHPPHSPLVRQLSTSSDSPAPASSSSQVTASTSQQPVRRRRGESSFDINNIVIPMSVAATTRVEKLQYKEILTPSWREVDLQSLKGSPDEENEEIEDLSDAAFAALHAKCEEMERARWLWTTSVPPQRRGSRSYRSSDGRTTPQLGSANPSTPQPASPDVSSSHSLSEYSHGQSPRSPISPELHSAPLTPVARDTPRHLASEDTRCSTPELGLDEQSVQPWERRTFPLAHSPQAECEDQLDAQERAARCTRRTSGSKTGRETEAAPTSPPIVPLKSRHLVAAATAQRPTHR
B3: Kelch-like protein 40 (Homo sapiens), Q2TBA0 (parent)
chain: MALGLEQAEEQRLYQQTLLQDGLKDMLDHGKFLDCVVRAGEREFPCHRLVLAACSPYFRARFLAEPERAGELHLEEVSPDVVAQVLHYLYTSEIALDEASVQDLFAAAHRFQIPSIFTICVSFLQKRLCLSNCLAVFRLGLLLDCARLAVAARDFICAHFTLVARDADFLGLSADELIAIISSDGLNVEKEEAVFEAVMRWAGSGDAEAQAERQRALPTVFESVRCRLLPRAFLESRVERHPLVRAQPELLRKVQMVKDAHEGRITTLRKKKKGKDGAGAKEADKGTSKAKAEEDEEAERILPGILNDTLRFGMFLQDLIFMISEEGAVAYDPAANECYCASLSNQVPKNHVSLVTKENQVFVAGGLFYNEDNKEDPMSAYFLQFDHLDSEWLGMPPLPSPRCLFGLGEALNSIYVVGGREIKDGERCLDSVMCYDRLSFKWGESDPLPYVVYGHTVLSHMDLVYVIGGKGSDRKCLNKMCVYDPKKFEWKELAPMQTARSLFGATVHDGRIIVAAGVTDTGLTSSAEVYSITDNKWAPFEAFPQERSSLSLVSLVGTLYAIGGFATLETESGELVPTELNDIWRYNEEEKKWEGVLREIAYAAGATFLPVRLNVLCLTKM
B4: Nucleoside diphosphate kinase homolog 5 (Homo sapiens), P56597 (parent)
chain: MEISMPPPQIYVEKTLAIIKPDIVDKEEEIQDIILRSGFTIVQRRKLRLSPEQCSNFYVEKYGKMFFPNLTAYMSSGPLVAMILARHKAISYWLELLGPNNSLVAKETHPDSLRAIYGTDDLRNALHGSNDFAAAEREIRFMFPEVIVEPIPIGQAAKDYLNLHIMPTLLEGLTELCKQKPADPLIWLADWLLKNNPNKPKLCHHPIVEEPY
partner: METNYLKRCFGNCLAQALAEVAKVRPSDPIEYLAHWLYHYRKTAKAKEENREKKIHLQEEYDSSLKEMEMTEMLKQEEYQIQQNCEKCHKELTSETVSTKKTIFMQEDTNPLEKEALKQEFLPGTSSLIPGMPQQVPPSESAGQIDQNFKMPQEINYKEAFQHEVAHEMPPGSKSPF

Variants of: B1
Settings: with uter_human SCGB1A1, P11684

**Q.** How did the “effect of a mutation on the interaction” value turn out when E547A was run?
**A.** disrupting interaction strength

Variants of: B2
Settings: with kanl1_human KANSL1, Q7Z3B3

**Q.** Which “effect of a mutation on the interaction” value does the source give for R8Q here?
**A.** with no effect

**Q.** S688L was tested. Which “effect of a mutation on the interaction” value did it give?
**A.** with no effect

Variants of: B3
Settings: with smip4_human SPMIP4, Q8N865
smip4_human SPMIP4, Q8N865, sequence (Q8N865 whole entry): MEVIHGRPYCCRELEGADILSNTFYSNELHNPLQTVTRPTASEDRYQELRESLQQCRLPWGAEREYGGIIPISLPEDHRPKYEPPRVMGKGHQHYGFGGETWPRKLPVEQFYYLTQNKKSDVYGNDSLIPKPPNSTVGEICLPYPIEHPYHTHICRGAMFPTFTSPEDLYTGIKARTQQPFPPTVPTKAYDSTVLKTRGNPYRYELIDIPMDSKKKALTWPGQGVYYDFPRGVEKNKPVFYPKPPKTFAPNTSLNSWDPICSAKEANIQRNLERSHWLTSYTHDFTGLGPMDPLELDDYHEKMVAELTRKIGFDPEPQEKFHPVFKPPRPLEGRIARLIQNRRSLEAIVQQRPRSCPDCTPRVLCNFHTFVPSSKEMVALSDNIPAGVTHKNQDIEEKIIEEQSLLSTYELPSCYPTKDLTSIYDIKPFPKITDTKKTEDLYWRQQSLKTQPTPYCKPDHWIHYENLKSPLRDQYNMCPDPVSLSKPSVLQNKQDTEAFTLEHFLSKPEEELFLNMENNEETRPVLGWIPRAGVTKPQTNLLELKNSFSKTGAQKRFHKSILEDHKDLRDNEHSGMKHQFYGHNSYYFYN

**Q.** How did the “effect of a mutation on the interaction” value turn out when D484N was run?
**A.** with no effect

Variants of: B4
Settings: with dydc2_human DYDC2, Q96IM9

**Q.** With S50N as the variant, how does the “effect of a mutation on the interaction” value read?
**A.** with no effect

**Q.** L103F was tested. Which “effect of a mutation on the interaction” value did it give?
**A.** with no effect

**Q.** How did the “effect of a mutation on the interaction” value turn out when I165M was run?
**A.** with no effect

**Q.** N198D was tested. Which “effect of a mutation on the interaction” value did it give?
**A.** with no effect
